Experimental data reported in US20190315873A1 (AGOMAB THERAPEUTICS, published 2019).

Key:
[1] = biological target: mouse MET on MLP29 mouse liver precursor cells (mouse) (UniProt P16056); experiment: cell-based or functional assay
[2] = biological target: human MET on A549 human lung carcinoma cells (human) (UniProt P08581); experiment: cell-based or functional assay
monkey MET ECD = biological target: T1, monkey MET ECD (cynomolgus monkey, UniProt A0A2K5UM36 25-932); experiment: ELISA: MET ECD immobilized (100 ng/well), mAb in human IgG1/lambda format in solution (0-40 nM), HRP anti-human Fc
T1 construct: also called simian MET; cynomolgus monkey MET
T1 sequence (A0A2K5UM36 entry or part of it limits assumed): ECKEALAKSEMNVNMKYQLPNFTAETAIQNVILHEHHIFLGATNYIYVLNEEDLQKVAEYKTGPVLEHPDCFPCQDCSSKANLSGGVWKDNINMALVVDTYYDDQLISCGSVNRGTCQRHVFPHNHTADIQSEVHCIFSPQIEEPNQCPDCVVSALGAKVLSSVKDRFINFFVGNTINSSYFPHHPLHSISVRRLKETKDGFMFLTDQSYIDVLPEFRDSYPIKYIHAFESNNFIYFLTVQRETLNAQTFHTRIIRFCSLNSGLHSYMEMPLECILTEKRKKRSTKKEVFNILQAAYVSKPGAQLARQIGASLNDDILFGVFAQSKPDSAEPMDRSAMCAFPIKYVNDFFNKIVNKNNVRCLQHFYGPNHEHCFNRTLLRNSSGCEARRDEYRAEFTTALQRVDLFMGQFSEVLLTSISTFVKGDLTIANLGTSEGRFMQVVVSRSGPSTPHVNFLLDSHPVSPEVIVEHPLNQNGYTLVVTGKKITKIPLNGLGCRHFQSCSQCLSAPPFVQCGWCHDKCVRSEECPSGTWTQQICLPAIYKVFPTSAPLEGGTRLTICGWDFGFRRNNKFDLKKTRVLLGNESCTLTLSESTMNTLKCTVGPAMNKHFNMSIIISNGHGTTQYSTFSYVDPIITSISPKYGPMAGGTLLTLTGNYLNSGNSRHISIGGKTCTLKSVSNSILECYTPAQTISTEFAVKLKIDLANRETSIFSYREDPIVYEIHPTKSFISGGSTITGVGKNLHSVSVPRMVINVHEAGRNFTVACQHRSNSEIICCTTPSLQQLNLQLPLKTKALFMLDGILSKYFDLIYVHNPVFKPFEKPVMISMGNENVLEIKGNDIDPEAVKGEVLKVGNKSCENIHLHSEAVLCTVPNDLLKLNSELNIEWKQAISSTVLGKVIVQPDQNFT
Text: (§1) To this end, we investigated whether our human/mouse equivalent anti-MET antibodies cross-reacted with MET from other species, including rat (Rattus norvegicus) and cynomolgus monkey (Macaca fascicularis). […] Human and mouse MET ECD were used as controls. A restricted panel of antibodies representative of both SEMA binders (71D6, 71C3, 71D4, 71A3, 71G2) and PSI binders (76H10, 71G3) was selected. The 5D5 prior art antibody was used as control. MET ECD proteins were immobilized in solid phase (100 ng/well in a 96-well plate) and exposed to increasing concentrations (0-40 nM) of antibodies (with human constant regions) in solution. […] We conclude that the 71D6, 71C3, 71D4, 71A3, 71G2, 76H10 and 71G3 antibodies bind with similar affinity and capacity to human MET, mouse MET, rat MET and simian MET, at least as determined by ELISA.

mouse MET ECD [3] = biological target: T2, mouse MET ECD (mouse, UniProt P16056 25-931); experiment: as above
T2 construct: range 1-931; recombinant ECD; also called mMET; mouse MET extracellular domain
Text: as §1

human MET ECD [4] = biological target: T3, human MET ECD (human, UniProt P08581 25-932); experiment: as above
T3 construct: range 1-932; recombinant ECD made by standard protein engineering; also called hMET; human MET extracellular domain
Text: as §1

[5] = biological target: human MET ECD mutant J (mutations 6, 7) (human) (UniProt P08581); experiment: ELISA on mutant human MET ECD
[6] = biological target: human MET ECD mutant I (mutations 6, 7, 8) (human) (UniProt P08581); experiment: ELISA on mutant human MET ECD
rat MET ECD (rat) = rat MET ECD (rat) (UniProt P97523); experiment: ELISA: MET ECD immobilized (100 ng/well), mAb in human IgG1/lambda format in solution (0-40 nM), HRP anti-human Fc
Sequence of rat MET ECD (rat) (P97523 25-931 limits assumed, form in doubt): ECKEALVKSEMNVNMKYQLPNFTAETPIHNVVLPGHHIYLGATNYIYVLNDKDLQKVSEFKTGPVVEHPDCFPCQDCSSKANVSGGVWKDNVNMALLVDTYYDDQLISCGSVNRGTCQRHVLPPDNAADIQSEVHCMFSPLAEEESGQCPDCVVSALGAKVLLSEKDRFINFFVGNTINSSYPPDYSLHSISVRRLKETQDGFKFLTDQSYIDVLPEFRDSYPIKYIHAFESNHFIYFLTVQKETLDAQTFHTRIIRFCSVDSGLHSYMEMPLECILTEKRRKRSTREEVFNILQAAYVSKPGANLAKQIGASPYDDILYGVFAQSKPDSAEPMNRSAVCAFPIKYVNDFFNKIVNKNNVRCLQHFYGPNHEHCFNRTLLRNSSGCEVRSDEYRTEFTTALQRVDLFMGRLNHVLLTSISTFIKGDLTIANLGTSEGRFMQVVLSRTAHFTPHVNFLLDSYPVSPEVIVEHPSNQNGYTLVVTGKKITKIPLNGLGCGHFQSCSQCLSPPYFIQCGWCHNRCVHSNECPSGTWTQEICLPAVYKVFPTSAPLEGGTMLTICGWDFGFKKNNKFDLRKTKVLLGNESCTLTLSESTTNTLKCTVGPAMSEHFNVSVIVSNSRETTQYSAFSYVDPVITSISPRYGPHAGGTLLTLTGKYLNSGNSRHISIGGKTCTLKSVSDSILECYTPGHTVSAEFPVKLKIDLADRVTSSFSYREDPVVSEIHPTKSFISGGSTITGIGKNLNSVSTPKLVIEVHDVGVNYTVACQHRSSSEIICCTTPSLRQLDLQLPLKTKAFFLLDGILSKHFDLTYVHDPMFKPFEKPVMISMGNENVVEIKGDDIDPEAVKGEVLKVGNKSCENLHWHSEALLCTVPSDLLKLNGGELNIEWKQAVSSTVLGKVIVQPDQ

[7] = biological target: human MET ECD mutant E (mutations 2, 3, 4) (human) (UniProt P08581); experiment: ELISA on mutant human MET ECD
[8] = biological target: human MET ECD mutant H (mutations 2, 4) (human) (UniProt P08581); experiment: ELISA on mutant human MET ECD
[9] = biological target: human MET ECD mutant D (mutations 1, 2) (human) (UniProt P08581); experiment: ELISA on mutant human MET ECD
[10] = biological target: human MET ECD mutant A (mutations 1, 2, 3) (human) (UniProt P08581); experiment: ELISA on mutant human MET ECD
[11] = biological target: T4, human MET on A549 human lung carcinoma cells (human, UniProt P08581 25-1390); experiment: cell-based or functional assay
[12] = biological target: T5, mouse MET on MLP29 mouse liver precursor cells (mouse, UniProt P16056 25-1379); experiment: cell-based or functional assay
mouse MET ECD [13] = biological target: T2, mouse MET ECD; experiment: ELISA, mouse-format mAb on MET ECD
Method: (§2) In order to directly determine whether—and to what extent—the prior art agonistic anti-MET antibodies cross-reacted with mouse MET, and to compare them to our human/mouse equivalent anti-MET antibodies, we performed an ELISA assay. Since all prior art antibodies were obtained or engineered with a mouse IgG/A format, we employed the mouse IgG/A version of 71G3, 71D6 and 71G2. Human or mouse MET ECD was immobilized in solid phase (100 ng/well in a 96-well plate) and exposed to increasing concentrations of antibodies (0-40 nM) in solution. […] Among the antibodies tested, only 71G3, 71D6 and 71G2 bound to both human and mouse MET, and they did so with indistinguishable affinities and capacities.

human MET ECD [14] = biological target: T3, human MET ECD; experiment: ELISA, mouse-format mAb on MET ECD
Method: as §2

human MET ECD [15] = biological target: T3, human MET ECD; experiment: ELISA on MET ECD
[16] = biological target: T5, mouse MET on MLP29 mouse liver …; experiment: flow cytometry, MLP29 cells
[17] = biological target: T4, human MET on A549 human lung carcinoma …; experiment: flow cytometry, A549 cells

## recombinant mouse HGF (from UniProt Q08048 33-728) (ligand)
[1]
  phospho-MET ELISA EC50: 0.23 nM
  phospho-MET ELISA EMAX (% HGF activity): 100

## recombinant human HGF (from UniProt P14210 32-728) (ligand)
[2]
  phospho-MET ELISA EC50: 0.19 nM
  phospho-MET ELISA EMAX (% HGF activity): 100

B1: 71G3 llama-human chimeric mAb (human IgG1/lambda) (antibody)
heavy: QVQLVESGGGLVQPGGSLRVSCAASGFTFSTYYMSWVRQAPGKGLEWVSDIRTDGGTYYADSVKGRFTMSRDNAKNTLYLQMNSLKPEDTALYYCARTRIFPSGYDYWGQGTQVTVSSASTKGPSVFPLAPSSKSTSGGTAALGCLVKDYFPEPVTVSWNSGALTSGVHTFPAVLQSSGLYSLSSVVTVPSSSLGTQTYICNVNHKPSNTKVDKKVEPKSCDKTHTCPPCPAPELLGGPSVFLFPPKPKDTLMISRTPEVTCVVVDVSHEDPEVKFNWYVDGVEVHNAKTKPREEQYNSTYRVVSVLTVLHQDWLNGKEYKCKVSNKALPAPIEKTISKAKGQPREPQVYTLPPSRDELTKNQVSLTCLVKGFYPSDIAVEWESNGQPENNYKTTPPVLDSDGSFFLYSKLTVDKSRWQQGNVFSCSVMHEALHNHYTSEVFVPQSRKVI
light: QAVVTQEPSLSVSPGGTVTLTCGLSSGSVTTSNYPGWFQQTPGQAPRTLIYNTNSRHSGVPSRFSGSISGNKAALTIMGAQPEDEADYYCSLYPGSTTVFGGGTHLTVLQPKAAPSVTLFPPSSEELQANKATLVCLISDFYPGAVTVAWKADSSPVKAGVETTTPSKQSNNKYAASSYLSLTPEQWKSHRSYSCQVTHEGSTVEKTVAPTECS
Monkey MET ECD
  EC50 (read off the curve): ~0.04 nM
Mouse MET ECD [3]
  EC50 (read off the curve): ~0.04 nM
Human MET ECD [4]
  EC50 (read off the curve): ~0.08 nM
[5]
  % binding (EMAX) vs WT MET ECD: 91.2%
[6]
  % binding (EMAX) vs WT MET ECD: 100%
Rat MET ECD (rat)
  EC50 (read off the curve): 0.1 nM

B2: 71A3 llama-human chimeric mAb (human IgG1/lambda) (antibody, V domains shown)
VH: EVQLVESGGGLVQPGGSLRLSCAASGFSFKDYDITWVRQAPGKGLEWVSTITSRSGSTSYVDSVKGRFTISGDNAKNTLYLQMNSLKPEDTAVYYCAKVYATTWDVGPLGYGMDYWGKGTLVTVSS
VL: SYELTQPSALSVTLGQTAKITCQGGSLGSSYAHWYQQKPGQAPVLVIYDDDSRPSGIPERFSGSSSGGTATLTISGAQAEDEGDYYCQSADSSGNAAVFGGGTHLTVLQ
Monkey MET ECD
  EC50 (read off the curve): ~0.1 nM
Mouse MET ECD [3]
  EC50 (read off the curve): ~0.07 nM
Human MET ECD [4]
  EC50 (read off the curve): ~0.09 nM
[7]
  % binding (EMAX) vs WT MET ECD: 65.4%
[8]
  % binding (EMAX) vs WT MET ECD: 76.7%
[9]
  % binding (EMAX) vs WT MET ECD: 128%
[10]
  % binding (EMAX) vs WT MET ECD: 117%
Rat MET ECD (rat)
  EC50 (read off the curve): 0.1 nM

B3: 71G2 llama-human chimeric mAb (human IgG1/lambda) (antibody)
heavy: EVQLQESGGGLVQPGGSLRLSCAASGFTFSIYDMSWVRQAPGKGLEWVSTINSDGSSTSYVDSVKGRFTISRDNAKNTLYLQMNSLKPEDTAVYYCAKVYGSTWDVGPMGYGMDYWGKGTLVTVSSASTKGPSVFPLAPSSKSTSGGTAALGCLVKDYFPEPVTVSWNSGALTSGVHTFPAVLQSSGLYSLSSVVTVPSSSLGTQTYICNVNHKPSNTKVDKKVEPKSCDKTHTCPPCPAPELLGGPSVFLFPPKPKDTLMISRTPEVTCVVVDVSHEDPEVKFNWYVDGVEVHNAKTKPREEQYNSTYRVVSVLTVLHQDWLNGKEYKCKVSNKALPAPIEKTISKAKGQPREPQVYTLPPSRDELTKNQVSLTCLVKGFYPSDIAVEWESNGQPENNYKTTPPVLDSDGSFFLYSKLTVDKSRWQQGNVFSCSVMHEALHNHYTSEVFVPQSRKVI
light: SSALTQPSALSVSLGQTARITCQGGSLGSSYAHWYQQKPGQAPVLVIYGDDSRPSGIPERFSGSSSGGTATLTISGAQAEDEDDYYCQSTDSSGNTVFGGGTRLTVLQPKAAPSVTLFPPSSEELQANKATLVCLISDFYPGAVTVAWKADSSPVKAGVETTTPSKQSNNKYAASSYLSLTPEQWKSHRSYSCQVTHEGSTVEKTVAPTECS
Monkey MET ECD
  EC50 (read off the curve): ~0.07 nM
Mouse MET ECD [3]
  EC50 (read off the curve): ~0.06 nM
Human MET ECD [4]
  EC50 (read off the curve): ~0.1 nM
[7]
  % binding (EMAX) vs WT MET ECD: 41.4%
[8]
  % binding (EMAX) vs WT MET ECD: 40.2%
[9]
  % binding (EMAX) vs WT MET ECD: 114%
[10]
  % binding (EMAX) vs WT MET ECD: 92.1%
Rat MET ECD (rat)
  EC50 (read off the curve): 0.1 nM

B4: 76H10 llama-human chimeric mAb (human IgG1/lambda) (antibody, V domains shown)
VH: QLQLVESGGGLVQPGGSLRVSCTASGFTFNTYYMTWVRQAPGKGLEWVSDINSGGGTYYADSVKGRFTISRDNAKNTLYLQMNSLKPEDTALYYCVRVRIWPVGYDYWGQGTQVTVSS
VL: QAVVTQEPSLSVSPGGTVTLTCGLSSGSVTTSNYPGWFQQTPGQAPRTLIYNTNNRHSGVPSRFSGSISGNKAALTITGAQPEDEADYYCSLYTGSYTTVFGGGTHLTVLQ
Monkey MET ECD
  EC50 (read off the curve): ~0.04 nM
Mouse MET ECD [3]
  EC50 (read off the curve): ~0.03 nM
Human MET ECD [4]
  EC50 (read off the curve): ~0.1 nM
[5]
  % binding (EMAX) vs WT MET ECD: 89%
[6]
  % binding (EMAX) vs WT MET ECD: 100%
Rat MET ECD (rat)
  EC50 (read off the curve): 0.1 nM

B5: 71D6 llama-mouse chimeric mAb (mouse IgG1/lambda) (antibody)
heavy: ELQLVESGGGLVQPGGSLRLSCAASGFTFSSYGMSWVRQAPGKGLEWVSAINSYGGSTSYADSVKGRFTISRDNAKNTLYLQMNSLKPEDTAVYYCAKEVRADLSRYNDYESYDYWGQGTQVTVSSAKTTPPSVYPLAPGSAAQTNSMVTLGCLVKGYFPEPVTVTWNSGSLSSGVHTFPAVLQSDLYTLSSSVTVPSSPRPSETVTCNVAHPASSTKVDKKIVPRDCGCKPCICTVPEVSSVFIFPPKPKDVLTITLTPKVTCVVVDISKDDPEVQFSWFVDDVEVHTAQTQPREEQFNSTFRSVSELPIMHQDWLNGKEFKCRVNSAAFPAPIEKTISKTKGRPKAPQVYTIPPPKEQMAKDKVSLTCMITDFFPEDITVEWQWNGQPAENYKNTQPIMNTNGSYFVYSKLNVQKSNWEAGNTFTCSVLHEGLHNHHTEKSLSHSPGK
light: QPVLNQPSALSVTLGQTAKITCQGGSLGARYAHWYQQKPGQAPVLVIYDDDSRPSGIPERFSGSSSGGTATLTISGAQAEDEGDYYCQSADSSGSVFGGGTHLTVLGQPKSSPSVTLFPPSSEELETNKATLVCTITDFYPGVVTVDWKVDGTPVTQGMETTQPSKQSNNKYMASSYLTLTARAWERHSSYSCQVTHEGHTVEKSLSRADCS
notes: also called 71D6 (mouse format)
[11]
  A549 MET act. EMAX: 98.3 % HGF
[12]
  MLP29 MET act. EMAX: 103 % HGF
Mouse MET ECD [13]
  EC50: 0.044 nM
  EMAX: 2.94 OD450
Human MET ECD [14]
  EC50: 0.042 nM
  EMAX: 2.69 OD450
Human MET ECD [15]
  EC50: 0.038 nM
[16]
  EMAX: 119 % CTR
[17]
  EMAX: 122 % CTR
